# Data from patent US20210330736A1 (UNIVERSITEIT VAN AMSTERDAM, priority 2018, published 2021).
# Biological target: GUCY2C (Homo sapiens, UniProt P25092)
# Experiment: Th Ser40 phosphorylation in HEK cells co-transfected with Th and GUCY2C (western blot)
# Type: cell-based
# Parameters: expressed in transfected cells; host or cells: HEK cells (ATCC), calcium-phosphate transfection, co-transfected with mouse Th
# Conditions: guanylin 10 μM, uroguanylin 1 μM, IBMX 100 μM, 1 hour
# Experimental: FIG. 4. GUCY2C activation increases Ser40 phosphorylation. Immunocytochemistry images (A) and western blotting analysis (B) of HEK cultures transfected with Th or Th+GUCY2C. (C) Co-transfected HEK cells were treated with guanylin (G) or uroguanylin (UroG) and changes in Ser40 phosphorylation were studied. The graph represents the statistical analysis (n=3 for Control, n=6 for Guanylin, n=9 for Uroguanylin; Mean±SEM). Unpaired Student's t-test (p-value: **<0.01).
# FIG. 5. […] (A) HEK cultures were treated with guanylin, in the presence or absence of IBMX. […] Unpaired Student's t-test (p-values: ****<0.0001, **<0.01, *<0.05). (B) HEK cells were co-transfected with Th and either the wt GUCY2C or a gain-of-function mutant (R792S). Ser40 phosphorylation was studied following guanylin treatment (G). […] Unpaired Student's t-test (p-values: ***<0.001, **<0.01).
# HEK cells were maintained in 100-mm Petri dishes and grown in DMEM medium supplemented with L-glutamine, penicillin-streptomycin (Pen&Strep) and 10% heat-inactivated fetal bovine serum (HIFBS). Growing conditions were 37° C. and 5% CO2. For every-other-day passages, HEK cultures were split at a 1:3 dilution. From Friday to Monday, the split proportion was doubled for all cell lines. For passaging, cultures were rinsed with PBS and incubated with 1 mL of trypsin during 5 minutes. Cells were resuspended in growth medium and finally split to the proper dilution. The experiments were performed in 12-well plates. For immunocytochemistry analysis, sterile 18-mm coverslips were added prior to the plating. 500 !μL of cell resuspension was seeded in each well. If experiments were to be performed 48 hours after the plate preparation, 1:5 was the seeding ratio for HEK cells. When the experiments took place 96 hours post-plating, 1:7 was the working dilution for HEK cells. Unless otherwise stated, HEK cultures were processed 96 hours post-plating.
# HEK cells were transfected using the calcium-phosphate method. 12-well plates were refreshed with 500 μL of growth medium before transfection. […]
# Chain of GUCY2C (P25092 24-1073): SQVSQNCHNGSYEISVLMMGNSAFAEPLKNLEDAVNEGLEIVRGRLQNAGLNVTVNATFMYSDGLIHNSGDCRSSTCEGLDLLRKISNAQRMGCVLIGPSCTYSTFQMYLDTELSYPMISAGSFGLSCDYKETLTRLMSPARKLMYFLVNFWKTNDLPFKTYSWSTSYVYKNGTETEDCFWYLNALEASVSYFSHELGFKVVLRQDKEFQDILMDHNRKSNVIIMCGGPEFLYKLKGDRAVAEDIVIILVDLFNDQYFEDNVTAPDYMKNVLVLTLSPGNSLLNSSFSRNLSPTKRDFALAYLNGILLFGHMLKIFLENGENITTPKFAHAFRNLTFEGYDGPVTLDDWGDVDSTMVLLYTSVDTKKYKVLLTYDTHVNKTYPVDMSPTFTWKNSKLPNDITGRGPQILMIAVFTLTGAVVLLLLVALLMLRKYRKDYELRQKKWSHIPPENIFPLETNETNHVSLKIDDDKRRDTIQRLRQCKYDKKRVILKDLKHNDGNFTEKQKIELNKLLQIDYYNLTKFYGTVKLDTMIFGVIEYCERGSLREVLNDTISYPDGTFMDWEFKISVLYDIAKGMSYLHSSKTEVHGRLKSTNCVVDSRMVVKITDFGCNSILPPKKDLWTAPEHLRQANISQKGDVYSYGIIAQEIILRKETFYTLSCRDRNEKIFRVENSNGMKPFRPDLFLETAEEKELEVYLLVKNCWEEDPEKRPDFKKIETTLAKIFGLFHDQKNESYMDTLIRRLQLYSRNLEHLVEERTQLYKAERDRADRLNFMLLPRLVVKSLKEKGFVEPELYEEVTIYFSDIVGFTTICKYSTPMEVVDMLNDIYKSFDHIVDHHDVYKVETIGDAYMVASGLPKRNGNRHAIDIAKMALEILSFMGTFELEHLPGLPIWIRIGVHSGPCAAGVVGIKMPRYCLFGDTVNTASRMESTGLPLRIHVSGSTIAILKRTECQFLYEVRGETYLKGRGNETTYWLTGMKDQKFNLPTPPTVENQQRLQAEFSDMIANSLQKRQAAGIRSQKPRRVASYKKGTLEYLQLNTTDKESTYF
substance,measurement,value
"guanylin: natural agonistic ligand of GUCY2C, 15 amino acid polypeptide; commercially available rat/mouse guanylin (Chemcruz) (PNTCEICAYAACTGC) [reference compound]",P-Ser40 levels / Ser40 phosphorylation (in words),increase P-Ser40 levels
